Results on one protein are retold here after article doi:10.1101/2020.01.13.904318 (bioRxiv, 2020).

The series concerns the molecule itself. The series is described as follows: SEC. On the technique in general: Size exclusion chromatography separates by hydrodynamic size, large species first.

B1: purified FrlR UTRA-domain (domain or fragment)
chain: QKVENALLTVSGFTDFGVSQGKATKEKVIEQERVSAAPFCEKLNIPGNSEVFHLCRVMYLDKEPLFIDSSWIPLSRYPDFDEIYVEGSSTYQLFQERFDTRVVSDKKTIDIFAATRPQAKWLKCELGEPLFRISKIAFDQNDKPVHVSELFCRANRITLTIDNKRH
The stoichiometry N is the number of molecules, sites or subunits per partner or assembly. As for B1, the “stoichiometry N” value amounted to 2.
